In this assay the target is wild-type A3A 1-199 (APOBEC3A) (human) (UniProt P31941). Nature of the assay: SEC. (In general: SEC sorts molecules by how far they enter the pores of the column.)

Sequence of wild-type A3A 1-199 (APOBEC3A), P31941 1-199 (enzyme; other documents disagree on this pair) (P31941 whole entry): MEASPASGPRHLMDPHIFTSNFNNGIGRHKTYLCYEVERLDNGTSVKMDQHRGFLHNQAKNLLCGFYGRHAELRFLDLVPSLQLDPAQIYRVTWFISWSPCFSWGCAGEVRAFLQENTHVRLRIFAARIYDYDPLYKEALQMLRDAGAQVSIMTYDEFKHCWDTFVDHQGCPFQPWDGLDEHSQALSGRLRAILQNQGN

The substance “wild-type A3A 1-199 (APOBEC3A), P31941 1-199 (enzyme; other documents disagree on this pair)” came in with a stoichiometry N of 2.

In general, stoichiometry N refers to the number of molecules, sites or subunits per partner or assembly.

Values taken from PMC7211764.
